Assay results taken from patent US20020164595, “Sequence specific DNA binding by p53” (published 2002).

B1: synthetic oligo 1 (A:T-substituted monomer) (dsDNA)
DNA 1: AGGAATTCCT
DNA 2: AGGAATTCCT
B2: synthetic oligo 2 (A:T-substituted dimer) (dsDNA)
DNA 1: AGGAATTCCTAGGAATTCCT
DNA 2: AGGAATTCCTAGGAATTCCT
B3: consensus monomer (dsDNA)
DNA 1: AGGCATGTCT
DNA 2: AGACATGCCT
B4: synthetic oligo 5 (direct half-site repeats) (dsDNA)
DNA 1: AGGCAAGGCAAGGCAAGGCA
DNA 2: TGCCTTGCCTTGCCTTGCCT
B5: synthetic oligo 6 (cloned consensus dimer) (dsDNA)
DNA 1: TGCAGGAATTCGATAGGCATGTCTAGGCATGTCTATCAAGCTTATCGAT
DNA 2: ATCGATAAGCTTGATAGACATGCCTAGACATGCCTATCGAATTCCTGCA
B6: synthetic oligo 7 (cloned consensus dimer, inverted) (dsDNA)
DNA 1: TGCAGGAATTCGATAGGCATGTCTAGACATGCCTATCAAGCTTATCGAT
DNA 2: ATCGATAAGCTTGATAGGCATGTCTAGACATGCCTATCGAATTCCTGCA
B7: synthetic oligo 8 (cloned consensus dimer, inverted) (dsDNA)
DNA 1: TGCAGGAATTCGATAGACATGCCTAGGCATGTCTATCAAGCTTATCGAT
DNA 2: ATCGATAAGCTTGATAGACATGCCTAGGCATGTCTATCGAATTCCTGCA
B8: synthetic oligo 9 (cloned monomer) (dsDNA)
DNA 1: TGCAGGAATTCGATAGGCATGTCTATCAAGCTTATCGAT
DNA 2: ATCGATAAGCTTGATAGACATGCCTATCGAATTCCTGCA
B9: fragment A subfragment 5 (dsDNA)
DNA 1: AGTGAAAGCAGGTAGATTGCCTTGCCTGGACTTGCCTGGCCTTGCCTTTTCTTTC
DNA 2: GAAAGAAAAGGCAAGGCCAGGCAAGTCCAGGCAAGGCAATCTACCTGCTTTCACT

How the values were obtained:
p53 wild-type [1] = target: T1, p53 wild-type (Homo sapiens, UniProt P04637 P04637:1-393); assay: pulldown; details: chain copies: 4
p53 wild-type [2] = target: T1, p53 wild-type; assay: pulldown; monomer alone, not shown; details: chain copies: 4
p53 wild-type [3] = target: T1, p53 wild-type; assay: pulldown; details: chain copies: 4; label: 32P
Source text: FIG. 11A. […] For each sample, the control lane (C) contained 2% of the total DNA used in the binding reaction, and was composed of two fragments: 2.9 kb vector DNA fragment, and a fragment of 40 to 80 bp containing no insert (lane 9; XhoI plus Pst1 digest of pBluescript II SK+), the 10 bp consensus monomer sequence 5′-[…]-3′ (lane 5), or multimers of this sequence arranged as indicated (lanes 1 to 4, 6, to 8). Bound DNA from the IP is shown in the B lanes.
To determine if the 10 bp consensus monomer could bind p53, a synthetic oligonucleotide (5′-[…]-3′) containing the consensus sequence was studied. Oligonucleotide duplexes were tested either directly or after cloning into plasmid vectors. […] Two variants of the consensus motif were also tested for binding. In the first, the two critical G:C bp's at position 4 and 6 of the monomer were substituted with A:T bp's (FIG. 10, synthetic oligonucleotides 1,2).

T1 sequence (P04637 whole entry, one chain of several): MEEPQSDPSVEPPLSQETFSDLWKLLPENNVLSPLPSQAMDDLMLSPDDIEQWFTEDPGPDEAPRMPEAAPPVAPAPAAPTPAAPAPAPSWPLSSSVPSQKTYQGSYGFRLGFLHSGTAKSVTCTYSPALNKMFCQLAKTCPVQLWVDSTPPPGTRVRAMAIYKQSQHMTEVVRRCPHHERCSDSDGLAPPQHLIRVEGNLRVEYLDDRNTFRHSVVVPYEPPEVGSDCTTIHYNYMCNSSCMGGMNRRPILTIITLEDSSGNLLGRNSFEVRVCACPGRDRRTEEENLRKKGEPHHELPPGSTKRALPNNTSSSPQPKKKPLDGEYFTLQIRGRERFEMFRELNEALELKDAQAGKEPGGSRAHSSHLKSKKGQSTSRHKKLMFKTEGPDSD

Binder	binding result (p53 wild-type [1])	binding result (p53 wild-type [3])	also measured
B1	no binding		
B2	no binding		
B3			binding result (p53 wild-type [2]): no binding
B4	no binding		
B5		binds	
B6		binds	
B7		binds	
B8		no binding	
B9			binding result (p53 wild-type [1]; label: 32P): binds
